Reference: the supplement of paper PMC10567573

B1: FAM46D (parent)
chain: LELKFVSSLRRQFEFSVDSFQIVL

Variants of: B1
Experiment: protein stability index of a GFP-peptide fusion (GPS, HEK-293T) (PSI 1-6); higher = more stable
Settings: c terminus: a fixed tail appended
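Also: lentivirally expressed fusions sorted by FACS into six bins by GFP to DsRed ratio, PSI derived from sequencing read proportions per bin multiplied by bin number.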

In order of falling protein stability index:
1. F15H  5.32
2. D18H  4.76
3. R11A  4.7
4. V6N  4.62
5. S7F  4.35
6. V17D  4.26
7. S7E  4.25
8. V23E  4.1
9. V6W  4
10. L9D  3.93
11. S19H  3.92
12. S16C  3.91
13. S16V  3.91
14. L3S  3.84
15. K4S  3.75
16. F15L  3.69
17. R11G  3.69
18. V17H  3.65
19. F13W  3.64
20. K4C  3.62
21. S19F  3.6
22. Q21I  3.59
23. E14I  3.52
24. V6K  3.51
25. S16K  3.51
26. F20W  3.5
27. D18I  3.49
28. F20N  3.48
29. R10L  3.46
30. K4H  3.46
31. V17N  3.45
32. Q12V  3.44
33. S19G  3.42
34. V17R  3.4
35. E14G  3.4
36. L3A  3.39
37. V17C  3.37
38. F13T  3.34
39. E2V  3.32
40. S16A  3.32
41. V6T  3.31
42. L9Q  3.29
43. I22N  3.28
44. F5C  3.27
45. E14Y  3.27
46. S7D  3.25
47. R10P  3.23
48. I22F  3.23
49. F5Y  3.22
50. S8H  3.22
51. D18Y  3.18
52. V6Y  3.16
53. V6R  3.15
54. V23W  3.15
55. D18V  3.13
56. S7Y  3.11
57. F15G  3.1
58. Q12K  3.09
59. R11F  3.08
60. Q12S  3.06
61. R11N  3.06
62. S19D  3.06
63. R11Q  3.05
64. L9P  3.04
65. R11C  3.03
66. Q21R  3.02
67. Q21G  3.02
68. F5P  3.01
69. I22Y  3.01
70. R10A  3
71. L3V  3
72. F20A  2.99
73. S8W  2.98
74. S8C  2.96
75. F20G  2.96
76. S8Q  2.95
77. K4N  2.95
78. D18S  2.94
79. F15P  2.92
80. S8N  2.92
81. L1T  2.9
82. L1N  2.9
83. V6H  2.9
84. V23L  2.9
85. K4G  2.9
86. Q21S  2.89
87. Q21W  2.89
88. S16E  2.89
89. S19K  2.88
90. V23S  2.88
91. S7I  2.85
92. F13Q  2.84
93. E14L  2.84
94. L3C  2.84
95. S16Y  2.83
96. S8G  2.81
97. Q12Y  2.8
98. Q21Y  2.8
99. I22W  2.8
100. L24A  2.78
101. E2T  2.78
102. Q12G  2.76
103. V17T  2.76
104. S7G  2.76
105. L9I  2.75
106. E2C  2.74
107. L24R  2.73
108. F13H  2.73
109. V6D  2.73
110. F20C  2.73
111. I22L  2.7
112. Q12F  2.68
113. F15R  2.68
114. R10C  2.67
115. V23H  2.67
116. E14S  2.66
117. Q12P  2.65
118. I22E  2.65
119. Q21H  2.63
120. V17G  2.62
121. R11L  2.62
122. V6M  2.61
123. F5G  2.6
124. I22D  2.6
125. F20L  2.59
126. F15M  2.58
127. F13E  2.55
128. F20S  2.55
129. D18G  2.54
130. R11I  2.54
131. Q12N  2.49
132. E2Q  2.48
133. E14W  2.46
134. E2D  2.46
135. V17P  2.44
136. S19T  2.43
137. Q12R  2.39
138. F5N  2.37
139. S7W  2.37
140. L1K  2.36
141. I22S  2.36
142. L24K  2.35
143. L1R  2.33
144. V23Q  2.29
145. Q21L  2.24
146. E14Q  2.24
147. V6C  2.22
148. V17S  2.19
149. R10Y  2.17
150. L3G  2.11
151. R10V  2.04
152. I22R  2.04
153. L1G  2.02
154. R11D  1.97
155. V23G  1.94
156. V17E  1.91
157. S7N  1.88
158. L3H  1.82
159. L24V  1.77
160. F13Y  1.76
161. E2L  1.7
162. L3E  1.66
163. F5K  1.64
164. V6Q  1.56
165. V17Y  1.51
166. I22H  1.5
167. F5E  1.4
